Assay results from patent US20060045883A1, “Anti-cancer vaccines” (priority 2004, published 2006).

Tests used:
[1] = molecular target: HLA-A2.1 (HLA-A*0201) on the surface of T2 cells (human); assay: peptide-binding assay, stabilisation of HLA-A2 on the surface of T2 cells, fluorescence intensity relative to PR1
[2] = molecular target: HLA-A2.1 heavy chain with I125-labeled beta2-microglobulin (heterotrimer dissociation assay) (human); assay: dissociation of I125-labeled beta2-microglobulin from the heavy chain/peptide/beta2-microglobulin complex, HPLC gel filtration

| FI CCNE1144-152/FI PR1 [1] | Substance | T1/2 [2] |
| --- | --- | --- |
| 1.01 | CCNE1144-152 (cyclin E1 derived nonameric peptide) (from UniProt P24864 144-152) | – |
| – | HTLV-1 Tax peptide (aa 11-19) (from UniProt P03409 11-19) (peptide; other documents disagree on this pair) | 133 h |
